From PMC12122834

Experiments:
Assay in all cases: EMSA
SSB = SSB (Escherichia coli, UniProt P0AGE0 2-178)
YoaA;chi (HolC);SSB = YoaA;chi (HolC);SSB (Escherichia coli;Escherichia …, UniProt P76257;P28905;P0AGE0 1-636;1-147;2-178, ||)
[1] = target: YoaA;chi R128A (HolC R128A) (Escherichia coli;Escherichia coli, UniProt P76257;P28905 1-636;1-147, |R128A)
DinG = target: T1, DinG (Escherichia coli, UniProt P27296 1-716)
T1 sequence: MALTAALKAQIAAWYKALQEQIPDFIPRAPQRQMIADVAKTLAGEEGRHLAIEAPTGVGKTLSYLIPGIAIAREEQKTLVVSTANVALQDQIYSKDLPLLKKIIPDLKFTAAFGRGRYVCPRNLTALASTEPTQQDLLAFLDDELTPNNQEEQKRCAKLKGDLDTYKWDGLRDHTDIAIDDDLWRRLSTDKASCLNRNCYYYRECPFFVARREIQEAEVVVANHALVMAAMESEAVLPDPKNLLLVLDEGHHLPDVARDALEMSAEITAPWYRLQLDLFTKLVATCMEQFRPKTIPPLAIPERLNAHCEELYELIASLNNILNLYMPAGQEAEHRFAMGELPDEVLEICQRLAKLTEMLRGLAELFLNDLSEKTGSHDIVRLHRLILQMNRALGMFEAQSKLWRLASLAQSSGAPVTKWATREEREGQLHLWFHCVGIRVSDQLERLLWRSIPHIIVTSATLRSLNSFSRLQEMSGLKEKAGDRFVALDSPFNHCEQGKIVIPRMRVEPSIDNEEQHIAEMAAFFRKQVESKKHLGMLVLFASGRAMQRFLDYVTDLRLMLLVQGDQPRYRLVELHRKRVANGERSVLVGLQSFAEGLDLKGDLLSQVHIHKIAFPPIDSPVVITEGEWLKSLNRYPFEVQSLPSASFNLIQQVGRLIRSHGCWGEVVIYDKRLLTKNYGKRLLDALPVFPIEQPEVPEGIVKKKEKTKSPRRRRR

YoaA;chi (HolC) = YoaA;chi (HolC) (Escherichia coli;Escherichia coli, UniProt P76257;P28905 1-636;1-147, |)
DinG;SSB = DinG;SSB (Escherichia coli;Escherichia coli, UniProt P27296;P0AGE0 1-716;2-178, |)
SSB deltaC1 = SSB deltaC1 (Escherichia coli, UniProt P0AGE0 2-177, del178-178)

Measured: binding result

B1: ssT65 (S21) (ssDNA)
DNA: TTTTTTTTTTTTTTTTTTTTTTTTTTTTTTTTTTTTTTTTTTTTTTTTTTTTTTTTTTTTTTTTT
binds: all assays above
